Laboratory results as given in article doi:10.1101/636563.

Columns and labels:
[1] = target: KRas G12D (GDP-loaded) (UniProt P01116); assay: ITC
[2] = target: KRas G12D (GDP-loaded) (UniProt P01116); assay: thermal shift assay
[3] = target: KRas wild-type (UniProt P01116); assay: ITC
[4] = target: KRas G12D, site-specifically mono-biotinylated by sortase-mediated ligation (GDP-loaded) (UniProt P01116); assay: SPR

KRpep-2d (peptide)
Kd [1]: 21 nM | stoichiometry N [1]: 0.625 | ΔTm [2]: 11.5 °C

Raf-RBD (from UniProt P04049 56-131) (domain or fragment)
Kd [3]: 6 nM | stoichiometry N [3]: 0.554

SAH-SOS1A (from UniProt Q07889 929-944) (peptide)
Kd [4]: > 1000 nM

cyclorasin 9A5 (peptide)
Kd [4]: > 1000 nM
